Reference: patent US9180187B2, “Medicament for treating and/or preventing cancer” (TORAY INDUSTRIES, INC., priority 2010, dated 2015)

Columns and labels:
Test in all cases: ADCC activity, chromium-51 release
[1] = test system: human breast cancer cell line MDA-MB-157; format: cell-based; conditions: 1 μg antibody, mouse lymphocytes 2×10^5 cells, 10^3 target cells, 4 hours
Protocol: (§1) The above-selected anti-CAPRIN-1 monoclonal antibodies #1 to #11 were evaluated for their cytotoxic activities against cancer cells (ADCC activity). Hybridomas producing the monoclonal antibodies #1 to #11 were each cultured using hybridoma SFM medium (Invitrogen). The thus obtained supernatant was purified using Hitrap ProteinA Sepharose FF (GE HealthCare), replaced with PBS(−), and then filtered through 0.22 μm filter (Millipore). The obtained filtrates were used as antibodies for assay. The human breast cancer cell line MDA-MB-157 (10^6 cells) was collected in a 50-ml centrifuge tube, to which 100 μCi chromium(Cr)-51 was then added, and incubated at 37° C. for 2 hours. Subsequently, the cells were washed 3 times with RPMI1640 medium containing 10% FBS, and then dispensed into each well of a 96-well V-bottom plate at 10^3 cells per well. The thus obtained cells are used as target cell. The above purified antibodies (1 μg each) were added to the cells. Separately, mouse lymphocytes separated from the mouse spleen were further added (2×10^5 cells) and then cultured under conditions of 37° C. and 5% CO2 for 4 hours. After culture, the amount of chromium(Cr)-51 released from cytotoxically impaired tumor cells in a culture supernatant was measured, so that the ADCC activity of each anti-CAPRIN-1 antibody against cancer cells was calculated. […] On the other hand, similar procedures were performed using the monoclonal antibodies (which were prepared in Example 2) reactive with the CAPRIN-1 protein itself, but not reactive with the surface of cancer cells, no cytotoxic activity was observed (see FIG. 1). […] Similarly, the anti-CAPRIN-1 antibodies were examined for ADCC activity against other human cancer cell lines including glioma cell lines (T98G and U373), lung cancer cell lines (A549 and QG56), renal cancer cell lines (Caki-1 and ACHN), a uterine cervix cancer cell line (SW756), a bladder cancer cell line (T24), an esophageal cancer cell line (KYSE180), gastric cancer cell lines (MNK28 and MNK45), a colorectal cancer cell line (SW480), a leukemia cell line (AML5), and a lymphoma cell line (Ramos).

[2] = test system: A549; format: cell-based, human; conditions: lung cancer cell line
Protocol: as §1

[3] = test system: ACHN; format: cell-based, human; conditions: renal cancer cell line
Protocol: as §1

[4] = test system: AML5; format: cell-based, human; conditions: leukemia cell line
Protocol: as §1

[5] = test system: Caki-1; format: cell-based, human; conditions: renal cancer cell line
Protocol: as §1

[6] = test system: KYSE180; format: cell-based, human; conditions: esophageal cancer cell line
Protocol: as §1

[7] = test system: MNK28; format: cell-based, human; conditions: gastric cancer cell line
Protocol: as §1

[8] = test system: MNK45; format: cell-based, human; conditions: gastric cancer cell line
Protocol: as §1

[9] = test system: QG56; format: cell-based, human; conditions: lung cancer cell line
Protocol: as §1

[10] = test system: Ramos; format: cell-based, human; conditions: lymphoma cell line
Protocol: as §1

[11] = test system: SW480; format: cell-based, human; conditions: colorectal cancer cell line
Protocol: as §1

[12] = test system: SW756; format: cell-based, human; conditions: uterine cervix cancer cell line
Protocol: as §1

[13] = test system: T24; format: cell-based, human; conditions: bladder cancer cell line
Protocol: as §1

[14] = test system: T98G; format: cell-based, human; conditions: glioma cell line
Protocol: as §1

[15] = test system: U373; format: cell-based, human; conditions: glioma cell line
Protocol: as §1

B1: monoclonal antibody #9: mouse anti-CAPRIN-1 monoclonal antibody; heavy chain variable region SEQ ID NO: 103, light chain variable region SEQ ID NO: 107 (antibody, listed as Mus musculus, V domains shown)
VH: PRASLGVSETLLCTSGFTFTDYYMSWVRQPPGKALEWLGFIRNKANGYTTEYSASVKGRFTISRDNSQSILYLQMNTLRAEDSATYYCARANWAFDYWGQGTTVTVSSK
VL: SGDRVSLSCRASQSISNYLHWYQQKSHESPRLLIKYASQSISGIPSRFSGSGSGTDFTLSINSVETEDFGMYFCQQSNSWPYTFGGGTKLEIKQ
[1]
  ADCC activity (cytotoxic activity) against MDA-MB-157: 32.4%
[2]
  ADCC activity against A549: ≥ 24%
[3]
  ADCC activity against ACHN: ≥ 14%
[4]
  ADCC activity against AML5: ≥ 10%
[5]
  ADCC activity against Caki-L: ≥ 23%
[6]
  ADCC activity against KYSE180: ≥ 22%
[7]
  ADCC activity against MNK28: ≥ 15%
[8]
  ADCC activity against MNK45: ≥ 10%
[9]
  ADCC activity against QG56: ≥ 20%
[10]
  ADCC activity against Ramos: ≥ 10%
[11]
  ADCC activity against SW480: ≥ 17%
[12]
  ADCC activity against SW756: ≥ 16%
[13]
  ADCC activity against T24: ≥ 18%
[14]
  ADCC activity against T98G: ≥ 12%
[15]
  ADCC activity against U373: ≥ 16%
